Test results: patent US20220305066A1

Molecular target: EpCAM (epithelial cell adhesion molecule) on cells (UniProt P16422)
Experiment: cell-based or functional assay

Chain of UniProt P16422 (P16422 24-314 limits assumed): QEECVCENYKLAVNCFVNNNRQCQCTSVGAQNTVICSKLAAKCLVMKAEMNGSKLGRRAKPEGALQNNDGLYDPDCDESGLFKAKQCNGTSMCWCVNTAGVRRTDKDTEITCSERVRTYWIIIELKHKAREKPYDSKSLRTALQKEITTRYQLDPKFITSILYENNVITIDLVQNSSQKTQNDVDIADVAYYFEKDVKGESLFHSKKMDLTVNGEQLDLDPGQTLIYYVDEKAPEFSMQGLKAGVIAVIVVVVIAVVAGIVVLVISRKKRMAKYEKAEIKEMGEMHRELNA

B1: EpCAMscFv-HveA adapter (fused protein of scFv for EpCAM and HveA82 extracellular domain of HVEM) (protein)
chain: DIQMTQSPSSLSASVGDRVTITCRSTKSLLHSNGITYLYWYQQKPGKAPKLLIYQMSNLASGVPSRFSSSGSGTDFTLTISSLQPEDFATYYCAQNLEIPRTFGQGTKVELKRATPSHNSHQVPSAGGPTANSGTSGSEVQLVQSGPGLVQPGGSVRISCAASGYTFTNYGMNWVKQAPGKGLEWMGWINTYTGESTYADSFKGRFTFSLDTSASAAYLQINSLRAEDTAVYYCARFAIKGDYWGQGTLLTVSSGGGGSEFLPSCKEDEYPVGSECCPKCSPGYRVKEACGELTGTVCEPCPPGTYIAHLNGLSKCLQCQMCDPAMGLRASRNCSRTENAVCGHHHHHH
cell viability of BT-474 cells 5 days after infection with EADa-S virus: 34%
cell viability of MCF-7 cells 5 days after infection with EADa-S virus: 31%
cell viability of MDA-MB-453 cells 5 days after infection with EADa-S virus: 19%
